Publication PMC2806667 (Molecular microbiology, 2009)
One block for each binder: values may come before it.

B1: His6-IVA (SpoIVA) (natural protein, Bacillus subtilis, UniProt P35149 1-492, looked up)
chain: MEKVDIFKDIAERTGGDIYLGVVGAVRTGKSTFIKKFMELVVLPNISNEADRARAQDELPQSAAGKTIMTTEPKFVPNQAMSVHVSDGLDVNIRLVDCVGYTVPGAKGYEDENGPRMINTPWYEEPIPFHEAAEIGTRKVIQEHSTIGVVITTDGTIGDIARSDYIEAEERVIEELKEVGKPFIMVINSVRPYHPETEAMRQDLSEKYDIPVLAMSVESMRESDVLSVLREALYEFPVLEVNVNLPSWVMVLKENHWLRESYQESVKETVKDIKRLRDVDRVVGQFSEFEFIESAGLAGIELGQGVAEIDLYAPDHLYDQILKEVVGVEIRGRDHLLELMQDFAHAKTEYDQVSDALKMVKQTGYGIAAPALADMSLDEPEIIRQGSRFGVRLKAVAPSIHMIKVDVESEFAPIIGTEKQSEELVRYLMQDFEDDPLSIWNSDIFGRSLSSIVREGIQAKLSLMPENARYKLKETLERIINEGSGGLIAIIL

Tests used:
[1] = molecular target: T1, GST-VID (full length) (Bacillus subtilis, UniProt P37963 1-575); test: pull-down
T1 sequence (looked up): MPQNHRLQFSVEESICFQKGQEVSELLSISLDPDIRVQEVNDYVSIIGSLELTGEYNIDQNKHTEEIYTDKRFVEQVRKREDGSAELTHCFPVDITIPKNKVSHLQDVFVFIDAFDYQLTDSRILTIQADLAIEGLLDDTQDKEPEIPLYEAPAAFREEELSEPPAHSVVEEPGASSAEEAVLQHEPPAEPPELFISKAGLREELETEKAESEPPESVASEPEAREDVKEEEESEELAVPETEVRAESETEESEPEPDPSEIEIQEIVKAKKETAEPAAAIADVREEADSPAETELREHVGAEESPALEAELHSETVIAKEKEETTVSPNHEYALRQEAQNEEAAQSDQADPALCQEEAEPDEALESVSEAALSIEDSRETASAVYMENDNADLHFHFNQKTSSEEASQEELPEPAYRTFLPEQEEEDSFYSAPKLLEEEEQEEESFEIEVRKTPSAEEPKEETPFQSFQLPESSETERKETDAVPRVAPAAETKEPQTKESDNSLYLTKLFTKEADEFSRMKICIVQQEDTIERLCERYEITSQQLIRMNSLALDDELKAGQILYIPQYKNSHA

[2] = molecular target: T2, His6-VID full length (Bacillus subtilis, UniProt P37963 1-575); test: far-Western, overlay or dot blot
T2 sequence (looked up): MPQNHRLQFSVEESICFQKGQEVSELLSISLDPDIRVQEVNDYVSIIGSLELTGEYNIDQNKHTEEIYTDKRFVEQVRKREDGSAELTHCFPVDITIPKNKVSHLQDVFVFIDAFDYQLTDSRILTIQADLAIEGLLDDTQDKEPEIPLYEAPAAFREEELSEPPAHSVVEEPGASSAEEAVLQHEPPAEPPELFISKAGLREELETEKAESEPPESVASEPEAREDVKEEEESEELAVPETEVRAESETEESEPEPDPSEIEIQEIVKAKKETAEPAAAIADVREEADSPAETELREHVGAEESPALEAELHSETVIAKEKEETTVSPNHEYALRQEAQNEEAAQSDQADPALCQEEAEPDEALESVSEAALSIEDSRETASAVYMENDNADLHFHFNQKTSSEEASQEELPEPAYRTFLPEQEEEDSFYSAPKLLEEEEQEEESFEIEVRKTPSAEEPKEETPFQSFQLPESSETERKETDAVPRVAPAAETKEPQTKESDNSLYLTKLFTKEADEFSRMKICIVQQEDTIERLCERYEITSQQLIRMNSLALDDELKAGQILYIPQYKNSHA

[3] = molecular target: B1; test: pull-down
[4] = molecular target: B1; test: far-Western, overlay or dot blot

Binder: B1
- binding result [1]: binds
- binding result [2]: binds

- binding result [3]: binds
B2: GST-VID L201-A575 fragment (domain or fragment, Bacillus subtilis, UniProt P37963 201-575, looked up)
chain: LREELETEKAESEPPESVASEPEAREDVKEEEESEELAVPETEVRAESETEESEPEPDPSEIEIQEIVKAKKETAEPAAAIADVREEADSPAETELREHVGAEESPALEAELHSETVIAKEKEETTVSPNHEYALRQEAQNEEAAQSDQADPALCQEEAEPDEALESVSEAALSIEDSRETASAVYMENDNADLHFHFNQKTSSEEASQEELPEPAYRTFLPEQEEEDSFYSAPKLLEEEEQEEESFEIEVRKTPSAEEPKEETPFQSFQLPESSETERKETDAVPRVAPAAETKEPQTKESDNSLYLTKLFTKEADEFSRMKICIVQQEDTIERLCERYEITSQQLIRMNSLALDDELKAGQILYIPQYKNSHA

- binding result [4]: binds
B3: His6-VID(121-575) (domain or fragment, Bacillus subtilis, UniProt P37963 121-575, looked up)
chain: DSRILTIQADLAIEGLLDDTQDKEPEIPLYEAPAAFREEELSEPPAHSVVEEPGASSAEEAVLQHEPPAEPPELFISKAGLREELETEKAESEPPESVASEPEAREDVKEEEESEELAVPETEVRAESETEESEPEPDPSEIEIQEIVKAKKETAEPAAAIADVREEADSPAETELREHVGAEESPALEAELHSETVIAKEKEETTVSPNHEYALRQEAQNEEAAQSDQADPALCQEEAEPDEALESVSEAALSIEDSRETASAVYMENDNADLHFHFNQKTSSEEASQEELPEPAYRTFLPEQEEEDSFYSAPKLLEEEEQEEESFEIEVRKTPSAEEPKEETPFQSFQLPESSETERKETDAVPRVAPAAETKEPQTKESDNSLYLTKLFTKEADEFSRMKICIVQQEDTIERLCERYEITSQQLIRMNSLALDDELKAGQILYIPQYKNSHA

- binding result [4]: binds
B4: His6-VID(121-521) (domain or fragment, Bacillus subtilis, UniProt P37963 121-521, looked up)
chain: DSRILTIQADLAIEGLLDDTQDKEPEIPLYEAPAAFREEELSEPPAHSVVEEPGASSAEEAVLQHEPPAEPPELFISKAGLREELETEKAESEPPESVASEPEAREDVKEEEESEELAVPETEVRAESETEESEPEPDPSEIEIQEIVKAKKETAEPAAAIADVREEADSPAETELREHVGAEESPALEAELHSETVIAKEKEETTVSPNHEYALRQEAQNEEAAQSDQADPALCQEEAEPDEALESVSEAALSIEDSRETASAVYMENDNADLHFHFNQKTSSEEASQEELPEPAYRTFLPEQEEEDSFYSAPKLLEEEEQEEESFEIEVRKTPSAEEPKEETPFQSFQLPESSETERKETDAVPRVAPAAETKEPQTKESDNSLYLTKLFTKEADEFSR
